# According to patent US20250326855A1 (GO THERAPEUTICS, published 2025):
# Where no end group is shown, it is not given here. GalNAc = O-linked GalNAc (Tn antigen, GalNAc-alpha1-O-Ser/Thr)
# T1: CD44v6 glycopeptide … with O-linked GalNAc on threonine 5 and serine 12 (human)
# T1 construct: Synthetic glycopeptide; also called CD44v6-Tn(S + T); Tn-glycosylated CD44v6 glycopeptide
# T1 peptide: GYRQT(GalNAc)PKEDSHS(GalNAc)TTGTAAA
# T2: CD44v6 peptide glycoform with Tn on serine only (human)
# T2 construct: also called CD44v6-Tn(S)
# T2 peptide: GYRQTPKEDSHS(GalNAc)TTGTAAA
# Key:
# [1] = target: T1, CD44v6 glycopeptide … with O-linked …; assay: BLI (Octet); biotinylated peptide on biosensor, antibody in solution
# Experimental: (§1) The affinities of humanized 4C8 candidates 1-8 against the CD44v6 glycopeptide and a MUC1 glycopeptide were measured using by bio-layer interferometry (BLI) using an Octet system. The peptides were immobilized onto the biosensor by biotin (ligand) and antibodies were in solution (analyte). Candidate 8(4C8-HV7-4-1-A/LV7-46-A) was most similar to the original […] antibody and was selected for further testing. Table 13 summarizes the dissociation constants (KD) for the noted humanized 4C8 candidates against the glycopeptides.
# [2] = target: T3, MUC1 glycopeptide (MUC1-Tn) (UniProt P15941 138-197, limits assumed, Tn (GalNAc) glycosylated; sites not stated in the examples); assay: as above
# Experimental: as §1
# [3] = target: Tn-glycosylated CD44 (human) (UniProt P16070); assay: ELISA, antibody fixed at 1 ug/mL, coated antigen CD44_10-G(S1T1)-BSA titrated
# [4] = target: T2, CD44v6 peptide glycoform with Tn on …; assay: BLI (Octet)
# [5] = target: T1, CD44v6 glycopeptide … with O-linked …; assay: BLI (Octet), apparent affinity with avidity factored in
# [6] = target: T1, CD44v6 glycopeptide … with O-linked …; assay: SPR (Biacore); Biacore, not Octet
# [7] = target: T3, MUC1 glycopeptide (MUC1-Tn); assay: Biacore, column 'Affinity (Biacore)', row MUC1-Tn
# [8] = target: T1, CD44v6 glycopeptide … with O-linked …; assay: BLI (Octet); biotinylated peptide on biosensor, antibody in solution; Table 13 Octet run with the humanized candidates; 4C8-cAb (mouse) as reference
# Experimental: as §1
# [9] = target: T1, CD44v6 glycopeptide … with O-linked …; assay: hybridoma screening (ELISA, flow cytometry, immunofluorescence)
# T3 sequence (P15941 138-197 limits assumed): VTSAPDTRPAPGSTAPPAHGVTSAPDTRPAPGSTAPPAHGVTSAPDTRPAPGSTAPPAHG
Binder,Kd [1] [nM],binding result [9],other results
"humanized 4C8 candidate 2 (4C8-HV1-46-A/LV7-43-A) (antibody, V domains shown, also called Molecule Number 2) VH: QVQLVQSGAEVKKPGASVKVSCKASGYTFTSYWMHWVRQAPGQGLEWIGNIYPRSGTTNYDGYFKSRATLTVDTSTSTAYMELSSLRSEDTAVYFCTRSGYDYPFVYWGQGTLVTVSS VL: QAVVTQEPSLTVSPGGTVTLTCRTSTGAVSIRNYANWVQEKPGQAFRGLIGGTNNRAPWTPARFSGSLLGDKAALTLSGVQPEDEAEYFCALLYSNYWVFGGGTKLTVL",194,,
"humanized 4C8 candidate 7 (4C8-HV1-69-A/LV7-46-A) (antibody, V domains shown, also called Molecule Number 7) VH: QVQLVQSGAEVKKPGSSVKVSCKASGYTFTSYWMHWVRQAPGQGLEWIGNIYPRSGTTNYDGYFKSRATLTVDTSTSTAYMELSSLRSEDTAVYFCTRSGYDYPFVYWGQGTLVTVSS VL: QAVVTQEPSLTVSPGGTVTLTCRTSTGAVSIRNYANWVQEKPGQAFRGLIGGTNNRAPWTPARFSGSLLGDKAALTLSGAQPEDEAEYFCALLYSNYWVFGGGTKLTVL",183,,binding result [2]: no binding (tested: affinity was below the detection limits); EC50 (read off the curve) [3]: 0.02 µg/mL
"humanized 4C8 candidate 6 (4C8-HV1-46-A/LV7-46-A) (antibody, V domains shown, also called Molecule Number 6) VH: QVQLVQSGAEVKKPGASVKVSCKASGYTFTSYWMHWVRQAPGQGLEWIGNIYPRSGTTNYDGYFKSRATLTVDTSTSTAYMELSSLRSEDTAVYFCTRSGYDYPFVYWGQGTLVTVSS VL: QAVVTQEPSLTVSPGGTVTLTCRTSTGAVSIRNYANWVQEKPGQAFRGLIGGTNNRAPWTPARFSGSLLGDKAALTLSGAQPEDEAEYFCALLYSNYWVFGGGTKLTVL",169,,binding result [2]: no binding (tested: affinity was below the detection limits)
"humanized 4C8 candidate 1 (4C8-HV1-18-A/LV7-43-A) (antibody, V domains shown, also called Molecule Number 1) VH: QVQLVQSGAEVKKPGASVKVSCKASGYTFTSYWMHWVRQAPGQGLEWIGNIYPRSGTTNYDGYFKSRATLTVDTSTSTAYMELRSLRSDDTAVYFCTRSGYDYPFVYWGQGTLVTVSS VL: QAVVTQEPSLTVSPGGTVTLTCRTSTGAVSIRNYANWVQEKPGQAFRGLIGGTNNRAPWTPARFSGSLLGDKAALTLSGVQPEDEAEYFCALLYSNYWVFGGGTKLTVL",191,,EC50 (read off the curve) [3]: 0.02 µg/mL
"humanized 4C8 candidate 5 (4C8-HV1-18-A/LV7-46-A) (antibody, V domains shown, also called Molecule Number 5) VH: QVQLVQSGAEVKKPGASVKVSCKASGYTFTSYWMHWVRQAPGQGLEWIGNIYPRSGTTNYDGYFKSRATLTVDTSTSTAYMELRSLRSDDTAVYFCTRSGYDYPFVYWGQGTLVTVSS VL: QAVVTQEPSLTVSPGGTVTLTCRTSTGAVSIRNYANWVQEKPGQAFRGLIGGTNNRAPWTPARFSGSLLGDKAALTLSGAQPEDEAEYFCALLYSNYWVFGGGTKLTVL",177,,
"humanized 4C8 candidate 3 (4C8-HV1-69-A/LV7-43-A) (antibody, V domains shown, also called Molecule Number 3) VH: QVQLVQSGAEVKKPGSSVKVSCKASGYTFTSYWMHWVRQAPGQGLEWIGNIYPRSGTTNYDGYFKSRATLTVDTSTSTAYMELSSLRSEDTAVYFCTRSGYDYPFVYWGQGTLVTVSS VL: QAVVTQEPSLTVSPGGTVTLTCRTSTGAVSIRNYANWVQEKPGQAFRGLIGGTNNRAPWTPARFSGSLLGDKAALTLSGVQPEDEAEYFCALLYSNYWVFGGGTKLTVL",161,,
"4C8 monoclonal antibody (antibody, V domains shown, Murine hybridoma antibody; also called 4C8 mAb; mAb 4C8) VH: QVQLQQPGSELVRPGASVKLSCKASGYTFTSYWMHWVKQRPGQGLEWIGNIYPRSGTTNYDGYFKSKATLTVDTSSSTAYMQLSSLTSEDSAVYFCTRSGYDYPFVYWGQGTLVTVSA VL: QAVVTQESALTTSPGETVTLTCRTSTGAVSIRNYANWVQEKPDHLFTGLIGGTNNRAPGVPARFSGSLIGDKAALTITGAQPEDEAIYFCALLYSNYWVFGGGTKLTVL",,,Kd [4]: 6.4 nM; Kd [5]: 7.9 nM; Kd [6]: 128 nM; Kd [7]: > 400 nM; EC50 (read off the curve) [3]: 0.02 µg/mL; Kd [8]: 163 nM
"2B2 antibody (antibody, V domains shown, Murine monoclonal antibody) VH: EVQLVESGGGLVKPGGSLKLSCAASGFTFSSYAMSWVRQSPERRLEWVAEISSGGSYTYYPDTVTGRFTISRDNAKNTLYLEMSSLRSEDTAMYYCARTVGEDWYFDVWGAGTTVTVSS VL: DIQMTQTTSSLSASLGDRVTISCRASQDISHYLNWYQQKPDGAVKLLIYSTSRLHSGVPSRFSGSGSGTDYSLTISNLEQEDIATYFCQQGYTLPFTFGSGTKLEIK",,binds,
"18G9 antibody (antibody, V domains shown, Murine monoclonal antibody) VH: DVQLVESGGGLVQPGGSRKLSCAASGFTFSSFGMHWVRQAPEKGLEWVAYISSGSSTIYYADTVKGRFTISRDNPKNTLFLQMTSLRSEDTAMYYCARGSYRAMDYWGQGTSVTVSS VL: QIVLTQSPALMSASPGEKVTMTCSASSSVNYMFWYQQKPRSSPKPWIYLTSNLASGVPARFSGSGSGTSYSLTISSMEAEDAATYYCQLWSSNPFTFGSGTKLEIK",,binds,
"1D12 antibody (antibody, V domains shown, Murine monoclonal antibody) VH: DVQLVESGGGLVQPGGSRKLSCAASGFTFSSFGIHWVRQAPEKGLEWVAYISSGSSTIYYADTVKGRFTISRDNPKNTLFLQMTSLRSEDTAMYYCARGSKVVAKSRGYWYFDVWGAGTTVTVSS VL: DVVVTQTPLFLPVSFGDQVSISCRSSQSLANNYGITYLSWYLHRPGQSPQLLIYGISNRFSGVPDRFSGSGSGTDFTLKISTIKPEDLGMYYCLQGTHQPWTFGGGTKLEIK",,binds,
"10H4 antibody (antibody, V domains shown, Rabbit monoclonal antibody) VH: QSLEESGGRLVTPGTPLTLTCTASGFTINTYHMGWFRQAPGKGLQYIGIVSHDVGTYYATWAKGRFTISKTSSTTVDLRMPSPTTEDTATYICARGPGYWTFNLWGQGTLVTVSS VL: AQVLTQTPASVSAAVGGTVTINCQASQSVYNNNQLSWYQQKPGQPLKQLIYKASTLASGVPSRFKGSGSGSQFTLTISDLECDDAATYFCAGGYKGDIHPFGGGTEVVVK",,binds,
